Laboratory results taken from publication PMC13397619.

B1: NLV3 TCR beta chain (CDR3β only) (parent)
chain: ASSPTGGSPSPLH
partner: MLVPMVATV

Variants of: B1
Assay: T-Switch: Jurkat TCRβ−/− cells expressing a CDR3 saturation-mutagenesis library, stained with two peptide-HLA-A*02:01 tetramers (original and novel peptide) plus anti-CD3, FACS-sorted into four gates, gDNA sequenced
Conditions: with HLA-A*02:01 with peptide … (NLV 3-1, the original bait), tetramers 1 µg/mL, 30 min on ice, DP and SW gates expanded about 10 days between rounds ('two to three rounds of selection' in the Methods), gate SP: higher = more of the variant in the gate that binds the original peptide and not the novel one = retained original binding. Fold enrichment of the CDR3 variant in one FACS gate of a two-tetra, unresolved parent, parent is a CDR3 fragment, scale: fold enrichment, numbering: sequential-on-construct, sequence …

Variant | enrichment
[…] (CDR3 as printed); A1H derived by comparing it with the table's wild-type CDR3 ASSPTGGSPSPLH | 0
[…] (CDR3 as printed); P4W derived by comparing it with the table's wild-type CDR3 ASSPTGGSPSPLH | 0
[…] (CDR3 as printed); G6I derived by comparing it with the table's wild-type CDR3 ASSPTGGSPSPLH | 0
[…] (CDR3 as printed); G6D derived by comparing it with the table's wild-type CDR3 ASSPTGGSPSPLH | 0.39
[…] (CDR3 as printed); S3L derived by comparing it with the table's wild-type CDR3 ASSPTGGSPSPLH | 0
[…] (CDR3 as printed); L12P derived by comparing it with the table's wild-type CDR3 ASSPTGGSPSPLH | 0
[…] (CDR3 as printed); S3V derived by comparing it with the table's wild-type CDR3 ASSPTGGSPSPLH | 0
[…] (CDR3 as printed); T5M derived by comparing it with the table's wild-type CDR3 ASSPTGGSPSPLH | 7.93
[…] (CDR3 as printed); P9A derived by comparing it with the table's wild-type CDR3 ASSPTGGSPSPLH | 4.97
[…] (CDR3 as printed); H13A derived by comparing it with the table's wild-type CDR3 ASSPTGGSPSPLH | 6.12
[…] (CDR3 as printed); S8G derived by comparing it with the table's wild-type CDR3 ASSPTGGSPSPLH | 0
[…] (CDR3 as printed); A1L derived by comparing it with the table's wild-type CDR3 ASSPTGGSPSPLH | 0
[…] (CDR3 as printed); L12C derived by comparing it with the table's wild-type CDR3 ASSPTGGSPSPLH | 4.3
[…] (CDR3 as printed); P9E derived by comparing it with the table's wild-type CDR3 ASSPTGGSPSPLH | 0
[…] (CDR3 as printed); S2I derived by comparing it with the table's wild-type CDR3 ASSPTGGSPSPLH | 0
[…] (CDR3 as printed); A1C derived by comparing it with the table's wild-type CDR3 ASSPTGGSPSPLH | 1.12
[…] (CDR3 as printed); T5D derived by comparing it with the table's wild-type CDR3 ASSPTGGSPSPLH | 0
[…] (CDR3 as printed); L12A derived by comparing it with the table's wild-type CDR3 ASSPTGGSPSPLH | 0
[…] (CDR3 as printed); P11K derived by comparing it with the table's wild-type CDR3 ASSPTGGSPSPLH | 8.18
[…] (CDR3 as printed); L12S derived by comparing it with the table's wild-type CDR3 ASSPTGGSPSPLH | 1.12
[…] (CDR3 as printed); G6E derived by comparing it with the table's wild-type CDR3 ASSPTGGSPSPLH | 0

Variant | enrichment
[…] (CDR3 as printed); G7R derived by comparing it with the table's wild-type CDR3 ASSPTGGSPSPLH | 0
[…] (CDR3 as printed); G7S derived by comparing it with the table's wild-type CDR3 ASSPTGGSPSPLH | 0
[…] (CDR3 as printed); G6C derived by comparing it with the table's wild-type CDR3 ASSPTGGSPSPLH | 0
[…] (CDR3 as printed); L12D derived by comparing it with the table's wild-type CDR3 ASSPTGGSPSPLH | 0
[…] (CDR3 as printed); P4Q derived by comparing it with the table's wild-type CDR3 ASSPTGGSPSPLH | 3.21
[…] (CDR3 as printed); S8V derived by comparing it with the table's wild-type CDR3 ASSPTGGSPSPLH | 1.71
[…] (CDR3 as printed); L12G derived by comparing it with the table's wild-type CDR3 ASSPTGGSPSPLH | 0
[…] (CDR3 as printed); P9F derived by comparing it with the table's wild-type CDR3 ASSPTGGSPSPLH | 0
[…] (CDR3 as printed); A1W derived by comparing it with the table's wild-type CDR3 ASSPTGGSPSPLH | 0
[…] (CDR3 as printed); P11D derived by comparing it with the table's wild-type CDR3 ASSPTGGSPSPLH | 0
[…] (CDR3 as printed); P11R derived by comparing it with the table's wild-type CDR3 ASSPTGGSPSPLH | 9.69
[…] (CDR3 as printed); L12E derived by comparing it with the table's wild-type CDR3 ASSPTGGSPSPLH | 0
[…] (CDR3 as printed); P4I derived by comparing it with the table's wild-type CDR3 ASSPTGGSPSPLH | 0.897
[…] (CDR3 as printed); P11T derived by comparing it with the table's wild-type CDR3 ASSPTGGSPSPLH | 0
[…] (CDR3 as printed); S10F derived by comparing it with the table's wild-type CDR3 ASSPTGGSPSPLH | 0
[…] (CDR3 as printed); H13L derived by comparing it with the table's wild-type CDR3 ASSPTGGSPSPLH | 5.69
[…] (CDR3 as printed); T5A derived by comparing it with the table's wild-type CDR3 ASSPTGGSPSPLH | 2.2
[…] (CDR3 as printed); G7M derived by comparing it with the table's wild-type CDR3 ASSPTGGSPSPLH | 0
[…] (CDR3 as printed); H13W derived by comparing it with the table's wild-type CDR3 ASSPTGGSPSPLH | 8.46
[…] (CDR3 as printed); P4R derived by comparing it with the table's wild-type CDR3 ASSPTGGSPSPLH | 0.316
[…] (CDR3 as printed); S2G derived by comparing it with the table's wild-type CDR3 ASSPTGGSPSPLH | 1.01

Variant | enrichment
[…] (CDR3 as printed); S10M derived by comparing it with the table's wild-type CDR3 ASSPTGGSPSPLH | 9.51
[…] (CDR3 as printed); S2M derived by comparing it with the table's wild-type CDR3 ASSPTGGSPSPLH | 0
[…] (CDR3 as printed); T5R derived by comparing it with the table's wild-type CDR3 ASSPTGGSPSPLH | 0
[…] (CDR3 as printed); L12Q derived by comparing it with the table's wild-type CDR3 ASSPTGGSPSPLH | 0
[…] (CDR3 as printed); A1R derived by comparing it with the table's wild-type CDR3 ASSPTGGSPSPLH | 0
[…] (CDR3 as printed); G7W derived by comparing it with the table's wild-type CDR3 ASSPTGGSPSPLH | 0
[…] (CDR3 as printed); S10T derived by comparing it with the table's wild-type CDR3 ASSPTGGSPSPLH | 0
[…] (CDR3 as printed); S8D derived by comparing it with the table's wild-type CDR3 ASSPTGGSPSPLH | 0
[…] (CDR3 as printed); S8I derived by comparing it with the table's wild-type CDR3 ASSPTGGSPSPLH | 0
[…] (CDR3 as printed); H13V derived by comparing it with the table's wild-type CDR3 ASSPTGGSPSPLH | 5.71
[…] (CDR3 as printed); S2F derived by comparing it with the table's wild-type CDR3 ASSPTGGSPSPLH | 3.1
[…] (CDR3 as printed); P11M derived by comparing it with the table's wild-type CDR3 ASSPTGGSPSPLH | 7.79
[…] (CDR3 as printed); G6P derived by comparing it with the table's wild-type CDR3 ASSPTGGSPSPLH | 0
[…] (CDR3 as printed); G6Y derived by comparing it with the table's wild-type CDR3 ASSPTGGSPSPLH | 0
[…] (CDR3 as printed); P9Q derived by comparing it with the table's wild-type CDR3 ASSPTGGSPSPLH | 0
[…] (CDR3 as printed); G7N derived by comparing it with the table's wild-type CDR3 ASSPTGGSPSPLH | 0
[…] (CDR3 as printed); T5K derived by comparing it with the table's wild-type CDR3 ASSPTGGSPSPLH | 0
[…] (CDR3 as printed); S10K derived by comparing it with the table's wild-type CDR3 ASSPTGGSPSPLH | 0
[…] (CDR3 as printed); P4M derived by comparing it with the table's wild-type CDR3 ASSPTGGSPSPLH | 4.15
[…] (CDR3 as printed); S2V derived by comparing it with the table's wild-type CDR3 ASSPTGGSPSPLH | 1.18
[…] (CDR3 as printed); T5L derived by comparing it with the table's wild-type CDR3 ASSPTGGSPSPLH | 9.97

Variant | enrichment
[…] (CDR3 as printed); P4K derived by comparing it with the table's wild-type CDR3 ASSPTGGSPSPLH | 0
[…] (CDR3 as printed); S10C derived by comparing it with the table's wild-type CDR3 ASSPTGGSPSPLH | 0
[…] (CDR3 as printed); P9K derived by comparing it with the table's wild-type CDR3 ASSPTGGSPSPLH | 0
[…] (CDR3 as printed); T5N derived by comparing it with the table's wild-type CDR3 ASSPTGGSPSPLH | 0
[…] (CDR3 as printed); P11I derived by comparing it with the table's wild-type CDR3 ASSPTGGSPSPLH | 1.23
[…] (CDR3 as printed); G6K derived by comparing it with the table's wild-type CDR3 ASSPTGGSPSPLH | 0
[…] (CDR3 as printed); S2H derived by comparing it with the table's wild-type CDR3 ASSPTGGSPSPLH | 0.863
[…] (CDR3 as printed); L12N derived by comparing it with the table's wild-type CDR3 ASSPTGGSPSPLH | 0
[…] (CDR3 as printed); T5H derived by comparing it with the table's wild-type CDR3 ASSPTGGSPSPLH | 1.12
[…] (CDR3 as printed); S10N derived by comparing it with the table's wild-type CDR3 ASSPTGGSPSPLH | 0
[…] (CDR3 as printed); H13F derived by comparing it with the table's wild-type CDR3 ASSPTGGSPSPLH | 4.3
[…] (CDR3 as printed); S10L derived by comparing it with the table's wild-type CDR3 ASSPTGGSPSPLH | 8.65
[…] (CDR3 as printed); S8F derived by comparing it with the table's wild-type CDR3 ASSPTGGSPSPLH | 0
[…] (CDR3 as printed); H13T derived by comparing it with the table's wild-type CDR3 ASSPTGGSPSPLH | 5.47
[…] (CDR3 as printed); S10A derived by comparing it with the table's wild-type CDR3 ASSPTGGSPSPLH | 10.5
[…] (CDR3 as printed); S2E derived by comparing it with the table's wild-type CDR3 ASSPTGGSPSPLH | 0
[…] (CDR3 as printed); H13S derived by comparing it with the table's wild-type CDR3 ASSPTGGSPSPLH | 7.33
[…] (CDR3 as printed); G7K derived by comparing it with the table's wild-type CDR3 ASSPTGGSPSPLH | 0
[…] (CDR3 as printed); S3F derived by comparing it with the table's wild-type CDR3 ASSPTGGSPSPLH | 0
[…] (CDR3 as printed); G7D derived by comparing it with the table's wild-type CDR3 ASSPTGGSPSPLH | 0
[…] (CDR3 as printed); T5V derived by comparing it with the table's wild-type CDR3 ASSPTGGSPSPLH | 19.2
